Among the data in patent CN114671953A (BORGI BIOMEDICAL SCIENCE AND TECH HANGZHOU LIMITED COMPANY, dated 2022) are Kd and 响应 values, retold here.

T1: 人Nectin-4 (human, UniProt Q96NY8 32-349)
T1 construct: construct not described; also called human Nectin-4; PVRL4
T1 sequence (looked up): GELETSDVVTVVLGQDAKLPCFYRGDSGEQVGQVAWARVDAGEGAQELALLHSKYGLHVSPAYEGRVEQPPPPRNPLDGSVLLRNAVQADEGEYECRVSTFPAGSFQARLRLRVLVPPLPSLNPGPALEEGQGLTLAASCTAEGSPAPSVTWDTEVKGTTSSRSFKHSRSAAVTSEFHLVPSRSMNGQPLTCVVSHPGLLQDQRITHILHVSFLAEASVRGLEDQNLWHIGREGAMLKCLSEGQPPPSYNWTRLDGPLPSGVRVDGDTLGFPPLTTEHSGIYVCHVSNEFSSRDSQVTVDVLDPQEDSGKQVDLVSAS

B1: CMB7-10 (Fc fusion)
chain: QVQLVESGGGLVQAGESLRLSCAASGSIFSINAMAWYRQAPGKQRELVAAITSGGSTKYADSVKGRFTISRDNAKNTVYLQMNSLKPEDTAVYYCAAMDRTTLEYDYWGQGTLVTVSS
notes: Tested as VHH fused to human Fc; also called VHH-Fc; not shown: human Fc fused to the VHH
B2: CMB7-19 (Fc fusion)
chain: B1 chain with E16G, R19G, G26E, I31Y, A35G, Y37F, T57I, T90R, A91G
notes: as for B1
B3: CMB7-9 (Fc fusion)
chain: QVQLVESGGGLVQPGGSLRLSCAASGSIFSINAMGWYRQAPGKQRELVASITNGGSTKYDDSVKGRFTISRDNAKNTVYLQMNSLKPEDTAVYYCAAASLVVGGTWEYDTWGQGTLVTVSS
notes: as for B1
B4: CMB7-6 (Fc fusion)
chain: QVQLVESGGGLVQPGGSLRLSCAASGSIFSINVMGWYRQAPGKQRELVATITSGGSVNYADSVKGRFTISRDNANNTVYLQMNTLKPEDTAVYYCTADQLGPLGLLSPTIYWGQGTLVTVSS
notes: also called VHH 36; VHH-Fc; not shown: human Fc fused to the VHH
B5: CMB7-20 (Fc fusion)
chain: B4 chain with I31M, V57T, T84S, A97G, L105T, L106F, T109I, I110V, L117Q
notes: as for B1
B6: CMB7-23 (Fc fusion)
chain: B4 chain with I28D, S30T, I51V, V57L, N75K, T84S, L100F, L105H, T109I, L117Q
notes: as for B1
B7: CMB7-18 (Fc fusion)
chain: QVQLVESGGGLVQAGGSLRLSCAASGSIFSINAMGWHRQGPGDQRELVAAITSGGSTKYVDSVKGRFTISRDNAKNTVYLQMNSLKPEDTGVYYCAAMGGSYEYDYWGQGTQVTVSS
notes: as for B1
B8: CMB7-11 (Fc fusion)
chain: QVQLVESGGGLVQAGGSLRLSCAASGSIFSISAMGWFRQAPGNQREMVAAITKGGSVNYADSVKGRFTITRDNAKNTVYLQMNSLKPEDTAVYYCAAAVGAPFEYDYWGQGTQVTVSS
notes: as for B1
B9: CMB7-12 (Fc fusion)
chain: QVQLVESGGGLVQPGGSLRLACAASGSIFSINVMGWYRQAPGKQREYVASVSRGGSVKYVDSVKGRFTVSRDNAKNTMYLEMNSLKPEDTAIYFCGAETKMGRGFDSWGQGTQVTVSS
notes: as for B1
B10: CMB7-22 (Fc fusion)
chain: QVQLVESGGGLVQAGGSLRLSCAASGSIFSINAMGWFRQAPGKQRELVAAITSGGSTNYAVSVKGRFTISSDKAKNTVYLQMNSLKPEDTAVYYCAAARGEPFEYEYWGQGTLVTVSS
notes: as for B1
B11: CMB7-8 (Fc fusion)
chain: B10 chain with S27N, I31V, T57I, N58R, A60V, V61D, S71R, K73N, F103Y, E106D
notes: as for B1
B12: CMB7-7 (Fc fusion)
chain: B10 chain with V48A, N58K, V61D, S71R, K73N, S84R, A91G, R99T, E106N, L113Q
notes: as for B1

Substitutions are numbered along the chain they refer to.

The assay deals with T1, 人Nectin-4. In words: BLI, VHH-Fc on anti-hIgG Fc probe, human Nectin-4 as analyte. Set-up: 响应: unit not given here. (In general: In BLI a coated tip is dipped into the sample, and binding shifts an interference pattern.)
Broadly, the Kd is the concentration at which binding is half-saturated. The molecule B1 registered a Kd of 0.958 nM and a 响应 of 0.891.
Consider B2, for which the 响应 was 0.867.
Take B3: the Kd was determined as 0.53 nM and the 响应 is 0.891.
Take B4: the 响应 was found to be 0.835.
The same measure, in the same setting: then B5, with 0.783; and B6, with 0.877.
The molecule B7 showed a Kd of 0.81 nM and a 响应 of 0.729.
In turn, B8 yielded a 响应 of 0.94.
On the same count and under the same terms, to B9 belongs 0.97.
The same measure, in the same setting: then B10, with 0.841; and B11, with 0.915.
B12 showed a 响应 of 0.972.
